Data set [1] concerns the molecule itself. The data set is described as follows: in-cell photocrosslinking of the GST homodimer (365 nm, 10 min), band intensity ratio on anti-His Western blot. The protocol:
E. coli GST is homodimer (Nishida et al., J. Mol. Biol., 1998, 281:135-147). Three sites at the dimer interface, Asn87 in a loop and Tyr92 and Val125 in α-helices were chosen for incorporating Azi (FIG. 10A). GST genes with TAG mutation at these sites and a C-terminal His6 tag were cotransfected with the orthogonal tRNACUA^Tyr/EAziRS pair in HEK293 cells, and the cells were grown in the presence of 1 mM of Azi. Photocrosslinking was performed by exposing the cells under 365 nm UV light for 10 minutes. Cell lysates were separated on SDS-PAGE and probed with an antibody against the His6 tag.
After photocrosslinking, higher molecular weight bands around 46 kD emerged, accompanied by the intensity decrease of the monomer band (several faint bands between 23 kD and 46 kD were proteins in the cell lysate recognized by the penta-His antibody nonspecifically, which were also seen in samples without exposure to UV light). […] Crosslinked GST migrated at different positions in the gel depending on where Azi was incorporated.
(A western blot detects proteins with antibodies after separation by electrophoresis.)

Data set [2] concerns the molecule itself. Nature of the data set: in-cell photocrosslinking of the GST homodimer, anti-FLAG Western blot.

Non-standard residues stand in square brackets, D forms with d. Phe(4-N3) = [N-]=[N+]=Nc1ccc(C[C@H](N)C(=O)O)cc1

B1: E. coli glutathione S-transferase (GST) with p-azidophenylalanine (Azi) incorporated at Asn87 (87TAG), C-terminal His6 tag (enzyme)
chain: MKLFYKPGACSLASHITLRESGKDFTLVSVDLMKKRLENGDDYFAVNPKGQVPALLLDDGTLLTEGVAIMQYLADSVPDRQLLAPV[Phe(4-N3)]SISRYKTIEWLNYIATELHKGFTPLFRPDTPEEYKPTVRAQLEKKLQYVNEALKDEHWICGQRFTIADAYLFTVLRWAYAVKLNLEGLEHIAAFMQRMAERPEVQDALSAEGLKHHHHHH
notes: Expressed in HEK293/HEK293T cells with tRNACUA-Tyr/EAziRS and 1 mM Azi; crosslinked in live cells with 365 nm UV; X stands for the unnatural amino acid Azi; also called GST 87TAG; site 87
Consider B1, for which, in data set [1], the crosslinking efficiency was 33%.

B2: E. coli glutathione S-transferase (GST) with p-azidophenylalanine (Azi) incorporated at Asn87 (87TAG), C-terminal FLAG tag (enzyme, UniProt P0A9D2 1-201, looked up)
chain: MKLFYKPGACSLASHITLRESGKDFTLVSVDLMKKRLENGDDYFAVNPKGQVPALLLDDGTLLTEGVAIMQYLADSVPDRQLLAPV[Phe(4-N3)]SISRYKTIEWLNYIATELHKGFTPLFRPDTPEEYKPTVRAQLEKKLQYVNEALKDEHWICGQRFTIADAYLFTVLRWAYAVKLNLEGLEHIAAFMQRMAERPEVQDALSAEGLK
modifications: not fully specified (C-terminus); also: homodimer
notes: not shown: C-terminal FLAG tag replacing the His6 tag
As for B2, the binding result in data set [2] was “binds”.

B3: E. coli glutathione S-transferase (GST) with p-azidophenylalanine (Azi) incorporated at Tyr92 (92TAG), C-terminal His6 tag (enzyme)
chain: MKLFYKPGACSLASHITLRESGKDFTLVSVDLMKKRLENGDDYFAVNPKGQVPALLLDDGTLLTEGVAIMQYLADSVPDRQLLAPVNSISR[Phe(4-N3)]KTIEWLNYIATELHKGFTPLFRPDTPEEYKPTVRAQLEKKLQYVNEALKDEHWICGQRFTIADAYLFTVLRWAYAVKLNLEGLEHIAAFMQRMAERPEVQDALSAEGLKHHHHHH
notes: Expressed in HEK293/HEK293T cells with tRNACUA-Tyr/EAziRS and 1 mM Azi; crosslinked in live cells with 365 nm UV; X stands for the unnatural amino acid Azi; also called site 92; GST-His6
As for B3, the crosslinking efficiency in data set [1] was determined as 40%.

B4: E. coli glutathione S-transferase (GST) with p-azidophenylalanine (Azi) incorporated at Val125 (125TAG), C-terminal His6 tag (enzyme)
chain: MKLFYKPGACSLASHITLRESGKDFTLVSVDLMKKRLENGDDYFAVNPKGQVPALLLDDGTLLTEGVAIMQYLADSVPDRQLLAPVNSISRYKTIEWLNYIATELHKGFTPLFRPDTPEEYKPT[Phe(4-N3)]RAQLEKKLQYVNEALKDEHWICGQRFTIADAYLFTVLRWAYAVKLNLEGLEHIAAFMQRMAERPEVQDALSAEGLKHHHHHH
notes: Expressed in HEK293/HEK293T cells with tRNACUA-Tyr/EAziRS and 1 mM Azi; crosslinked in live cells with 365 nm UV; X stands for the unnatural amino acid Azi
As to B4, in data set [1], the crosslinking efficiency turned out to be 98%.

B5: E. coli glutathione S-transferase (GST) with p-azidophenylalanine (Azi) incorporated at Val125 (125TAG), C-terminal FLAG tag (enzyme, UniProt P0A9D2 1-201, looked up)
chain: MKLFYKPGACSLASHITLRESGKDFTLVSVDLMKKRLENGDDYFAVNPKGQVPALLLDDGTLLTEGVAIMQYLADSVPDRQLLAPVNSISRYKTIEWLNYIATELHKGFTPLFRPDTPEEYKPT[Phe(4-N3)]RAQLEKKLQYVNEALKDEHWICGQRFTIADAYLFTVLRWAYAVKLNLEGLEHIAAFMQRMAERPEVQDALSAEGLK
modifications: not fully specified (C-terminus); also: homodimer
notes: as for B2
On to B5, for which the binding result in data set [2] is recorded as “binds”.

The record behind these values is patent publication US20120077224A1 (SALK INSTITUTE FOR BIOLOGICAL STUDIES, published 2012).
